Results on 1 molecule are retold here after PMC3364176.

This assay deals with bovine brain microtubules (bovine) (UniProt Q6B856). The assay is described as follows: co-sedimentation.

B1: GST-CSAP (glutathione S-transferase fusion with full-length centriole and spindle-associated protein) (natural protein)
chain: MSPGSGVKSEYMKRYQEPRWEEYGPCYRELLHYRLGRRLLEQAHAPWLWDDWGPAGSSEDSASSESSGAGGPAPRCAPPSPPPPVEPATQEEAERRARGAPEEQDAEAGDAEAEDAEDAALPALPVKDVEDKPEQQTRTRETDKSPTSTEPRQQPSALFARGNRKAVKSPQRSSSKIKENKHPFALYGWGEKQTDTGSQKTHNVCASAPVHEIHESALRAKNRRQVEKRKLVAQRQRAHSVDVEKNRKMKASSSENPWMTEYMRCYSARA
Usually Kd stands for a measure of binding affinity in units of concentration. Turning to B1, the Kd was in the range of 1 to 2 µM.
